Numbering of substitutions follows the chain as printed. Numbers in names are those of the source.
Experiments:
[1] = target: T1, HA of A/California/04/2009 (H1N1) (influenza A virus (H1N1)), P26140; assay: ELISA; conditions: remark: other sources report otherwise
[2] = target: T1, HA of A/California/04/2009 (H1N1) …; assay: ELISA, recombinant HA; conditions: remark: other sources report otherwise
[3] = target: HA of A/Netherlands/219/2003 (H7N7) (influenza A virus (H7N7))
[4] = target: HA of A/Hong Kong/1/1968 (H3N2) (influenza A virus (H3N2)), Q91MA7; conditions: remark: other sources report otherwise
[5] = target: HA of A/Indonesia/5/2005 (H5N1) (influenza A virus (H5N1))
[6] = target: HA of A/Hong Kong/1073/99 (H9) (influenza A virus (H9))
[7] = target: HA of A/shearwater/Western Australia/2576/1979 (H15N9) (influenza A virus (H15N9))
[8] = target: HA of A/mallard duck/Astrakhan/263/1982 (H14N5) (influenza A virus (H14N5))
[9] = target: HA of A/Shanghai/2/2013 (H7N9) (influenza A virus (H7N9))
[10] = target: T1, HA of A/California/04/2009 (H1N1) …; assay: ELISA, recombinant HA; conditions: remark: other sources report otherwise; remark: listed apart in the source
[11] = target: T1, HA of A/California/04/2009 (H1N1) …; assay: BLI, Fab on immobilized biotinylated HA; conditions: remark: other sources report otherwise
[12] = target: T1, HA of A/California/04/2009 (H1N1) …; assay: BLI, 1:1 global fit; Table S2 of the text prints 48 for this strain; conditions: remark: other sources report otherwise

B1: FluA-20 (hybridoma-produced IgG) (antibody, V domains shown)
VH: QVQLQESGPGLVKPSETLSLTCSVSGVSVTSDIYYWTWIRQPPGKGLEWIGYIFYNGDTNYNPSLKSRVTMSIDTSKNEFSLRLTSVTAADTAVYFCARGTEDLGYCSSGSCPNHWGQGTLVTVSS
VL: DIQMTQSPSSLSASIGDRVTITCRPSQNIRSFLNWFQHKPGKAPKLLIYAASNLQSGVPSRFSGSGSGTEFTLTIRSLQPEDFATYYCQQSYNTPPTFGQGTKVEIK
**Q.** What does the source list for B1?
**A.** EC50 [1]: 8 ng/mL; EC50 [2]: 0.01 µg/mL

B2: rFluA-20 heavy chain mutant D98A (antibody, V domains shown)
VH: B1 VH with D103A
VL: B1 VL
**Q.** For B2, which EC50 fold over wild-type rFluA-20 [3] is on record?
**A.** > 100 fold

B3: rFluA-20 light chain mutant Q55A (antibody, V domains shown)
VH: B1 VH
VL: B1 VL with Q55A
**Q.** For B3, which EC50 [4] is on record?
**A.** 0.08 µg/mL

B4: rFluA-20 heavy chain mutant T96A (antibody, V domains shown)
VH: B1 VH with T101A
VL: B1 VL
**Q.** Which EC50 [5] does the source give for B4 here?
**A.** 0.11 µg/mL

**Q.** What about the EC50 [6] of the same binder?
**A.** 0.1 µg/mL

**Q.** What about the EC50 [3] of the same binder?
**A.** 0.04 µg/mL

**Q.** And the EC50 [7]?
**A.** 0.07 µg/mL

**Q.** What about the EC50 [8] of the same binder?
**A.** 0.23 µg/mL

**Q.** And the EC50 [9]?
**A.** 0.37 µg/mL

B5: rFluA-20 (recombinant FluA-20 IgG) (antibody, V domains shown)
VH: B1 VH
VL: B1 VL
**Q.** B5 was tested. Which EC50 [10] did it give?
**A.** 0.031 µg/mL

**Q.** What about the EC50 [2] of the same binder?
**A.** 0.012 µg/mL

B6: FluA-20 Fab (Fab, V domains shown)
VH: B1 VH
VL: B1 VL
**Q.** Which results are given for B6?
**A.** Kd [11]: 48 nM; Kd [12]: 46 nM

B7: rFluA-20 heavy chain mutant E97A (antibody, V domains shown)
VH: B1 VH with E102A
VL: B1 VL
**Q.** Which results are given for B7?
**A.** EC50 fold over wild-type rFluA-20 [5]: > 100 fold; EC50 [6]: 0.36 µg/mL; EC50 [3]: 0.08 µg/mL; EC50 [7]: 0.12 µg/mL; EC50 [8]: 0.64 µg/mL; EC50 [9]: 1 µg/mL

B8: rFluA-20 heavy chain mutant Y100aA (antibody, V domains shown)
VH: B1 VH with Y106A
VL: B1 VL
**Q.** Which EC50 fold over wild-type rFluA-20 [5] does the source give for B8 here?
**A.** > 100 fold

**Q.** And the EC50 fold over wild-type rFluA-20 [6]?
**A.** > 100 fold

**Q.** What about the EC50 fold over wild-type rFluA-20 [3] of the same binder?
**A.** > 100 fold

**Q.** What about the EC50 fold over wild-type rFluA-20 [7] of the same binder?
**A.** > 100 fold

**Q.** And the EC50 fold over wild-type rFluA-20 [8]?
**A.** > 100 fold

**Q.** What about the EC50 fold over wild-type rFluA-20 [9] of the same binder?
**A.** > 100 fold

B9: rFluA-20 heavy chain mutant Y34A (antibody, V domains shown)
VH: B1 VH with Y34A
VL: B1 VL
**Q.** Which results are given for B9?
**A.** EC50 fold over wild-type rFluA-20 [5]: > 100 fold; EC50 [6]: 0.21 µg/mL; EC50 [3]: 0.07 µg/mL; EC50 [7]: 0.1 µg/mL; EC50 [8]: 0.54 µg/mL; EC50 [9]: 0.44 µg/mL

— patent US20210252150A1
